Patent US20230002480A1

Assays:
Test in all cases: cell-based or functional assay
[1] = target: HIV-1 Env of pseudovirus 0260.v5.c36 (HIV-1)
[2] = target: HIV-1 Env of pseudovirus 191955_A11 (HIV-1)
[3] = target: HIV-1 Env of pseudovirus 211-9 (HIV-1)
[4] = target: HIV-1 Env of pseudovirus 231965.c01 (HIV-1)
[5] = target: HIV-1 Env of pseudovirus 231966.c02 (HIV-1)
[6] = target: HIV-1 Env of pseudovirus 3016.v5.c45 (HIV-1)
[7] = target: HIV-1 Env of pseudovirus 3365.v2.c2 (HIV-1)
[8] = target: HIV-1 Env of pseudovirus 6041.v3.c23 (HIV-1)
[9] = target: HIV-1 Env of pseudovirus 6480.v4.c25 (HIV-1)
[10] = target: HIV-1 Env of pseudovirus BJOX025000.01.1 (HIV-1)
[11] = target: HIV-1 Env of pseudovirus BJOX028000.10.3 (HIV-1)
[12] = target: HIV-1 Env of pseudovirus C2101.c01 (HIV-1)
[13] = target: HIV-1 Env of pseudovirus P1981_C5_3 (HIV-1)
[14] = target: HIV-1 Env of pseudovirus T250-4 (HIV-1)
[15] = target: HIV-1 Env of pseudovirus T255-34 (HIV-1)
[16] = target: HIV-1 Env of pseudovirus X2088_c9 (HIV-1)

## N49P11 (antibody)
[1]
  IC50: 0.438 µg/mL
  IC80: 1.47 µg/mL
  MPI: 100
[2]
  IC50: 2.74 µg/mL
  IC80: 15.3 µg/mL
  MPI: 100
[3]
  IC50: 5.67 µg/mL
  IC80: 18.2 µg/mL
  MPI: 100
[4]
  IC50: 9.78 µg/mL
  IC80: 24.2 µg/mL
  MPI: 100
[5]
  IC50: 4.31 µg/mL
  IC80: 16 µg/mL
  MPI: 100
[6]
  IC50: 8.75 µg/mL
  IC80: 21.4 µg/mL
  MPI: 100
[7]
  IC50: 0.064 µg/mL
  IC80: 0.452 µg/mL
  MPI: 100
[8]
  IC50: 4.42 µg/mL
  IC80: 17.6 µg/mL
  MPI: 100
[9]
  IC50: 0.227 µg/mL
  IC80: 1.03 µg/mL
  MPI: 100
[10]
  IC50: 0.361 µg/mL
  IC80: 2.58 µg/mL
  MPI: 100
[11]
  IC50: 5.33 µg/mL
  IC80: 46.7 µg/mL
  MPI: 100
[12]
  IC50: 0.084 µg/mL
  IC80: 0.505 µg/mL
  MPI: 100
[13]
  IC50: 5.29 µg/mL
  IC80: 16.5 µg/mL
  MPI: 100
[14]
  IC50: 6.28 µg/mL
  IC80: 25.6 µg/mL
  MPI: 100
[15]
  IC50: 0.418 µg/mL
  IC80: 3.83 µg/mL
  MPI: 100
[16]
  IC50: 6.82 µg/mL
  IC80: 22 µg/mL
  MPI: 100

## N49P7.2 (antibody)
[1]
  IC50: 0.644 µg/mL
  IC80: 1.8 µg/mL
  MPI: 100
[2]
  IC50: 44.5 µg/mL
  IC80: > 50 µg/mL
  MPI: 56
[3]
  IC50: 0.363 µg/mL
  IC80: 1.22 µg/mL
  MPI: 100
[4]
  IC50: 0.316 µg/mL
  IC80: 1.06 µg/mL
  MPI: 100
[5]
  IC50: 0.233 µg/mL
  IC80: 1.11 µg/mL
  MPI: 100
[6]
  IC50: 2.77 µg/mL
  IC80: 23.9 µg/mL
  MPI: 90
[7]
  IC50: 0.066 µg/mL
  IC80: 0.267 µg/mL
  MPI: 100
[8]
  IC50: 0.309 µg/mL
  IC80: 5.11 µg/mL
  MPI: 94
[9]
  IC50: 0.098 µg/mL
  IC80: 0.371 µg/mL
  MPI: 100
[10]
  IC50: 0.102 µg/mL
  IC80: 0.831 µg/mL
  MPI: 100
[11]
  IC50: 0.322 µg/mL
  IC80: 1.49 µg/mL
  MPI: 100
[12]
  IC50: 0.162 µg/mL
  IC80: 0.727 µg/mL
  MPI: 100
[13]
  IC50: 0.258 µg/mL
  IC80: 0.716 µg/mL
  MPI: 100
[14]
  IC50: > 50 µg/mL
  IC80: > 50 µg/mL
  MPI: 15
[15]
  IC50: 0.167 µg/mL
  IC80: 0.527 µg/mL
  MPI: 100
[16]
  IC50: 0.377 µg/mL
  IC80: 2.03 µg/mL
  MPI: 99

## N49P18.1 (antibody)
[1]
  IC50: 16.2 µg/mL
  IC80: 47.8 µg/mL
  MPI: 81
[2]
  IC50: > 50 µg/mL
  IC80: > 50 µg/mL
  MPI: 33
[3]
  IC50: 18.3 µg/mL
  IC80: > 50 µg/mL
  MPI: 73
[4]
  IC50: > 50 µg/mL
  IC80: > 50 µg/mL
  MPI: 31
[5]
  IC50: 29.9 µg/mL
  IC80: > 50 µg/mL
  MPI: 67
[6]
  IC50: > 50 µg/mL
  IC80: > 50 µg/mL
  MPI: 49
[7]
  IC50: 4.72 µg/mL
  IC80: 14.3 µg/mL
  MPI: 99
[8]
  IC50: 3.05 µg/mL
  IC80: 12.2 µg/mL
  MPI: 96
[9]
  IC50: 2.97 µg/mL
  IC80: 17.3 µg/mL
  MPI: 99
[10]
  IC50: 7.67 µg/mL
  IC80: 39.1 µg/mL
  MPI: 85
[11]
  IC50: 34 µg/mL
  IC80: > 50 µg/mL
  MPI: 64
[12]
  IC50: 15.3 µg/mL
  IC80: 41.9 µg/mL
  MPI: 85
[13]
  IC50: 19.3 µg/mL
  IC80: 45.4 µg/mL
  MPI: 83
[14]
  IC50: 4.86 µg/mL
  IC80: 15.1 µg/mL
  MPI: 94
[15]
  IC50: 10.4 µg/mL
  IC80: 33.8 µg/mL
  MPI: 90
[16]
  IC50: 9.08 µg/mL
  IC80: 34.9 µg/mL
  MPI: 88
